# Results from US20260234247A1.
# B1: LK-RB1-35 (antibody, human IgG4 S228P, kappa, V domains shown)
# VH: DVQLQESGPGLEKPSQSLSLTCSVTGYSITRGYQWNWIRQFPGNKLEWMGYISYDGSNNYNPSLKNRISITRDASKNQFFLKLNSVTTEDTATYYCARRSYNSIDYWGQGTTLTVSS
# VL: DIVLTQSPATLSVTPGDSVSLSCRASQSISSNLHWYQQKSHESPRLLIKYASQSISGIPSRFSGSGSGTDFTLSINSVETEDFGMYFCQQSNSWPLTFGAGTKLELKR
# B2: LK-RB1-36 (antibody, human IgG4 S228P, kappa, V domains shown)
# VH: DVQLQESGPGLEKPSQSLSLTCSVTGYSITRGYQWNWIRQFPGNKLEWMGYISYDGSNNYNPSLKNRISIIRDTSKNQFFLKLNSVTTEDTATYYCARRSYNSIDYWGQGTTLTVSS
# VL: DIVLTQSPATLSVTPGDSVSLSCRASQSISNNLHWYQQKSHESPRLLIKYASQSISGIPSRFSGSGSGTDFTLSINSVETEDFGMYFCQQSNSWPLTFGAGTKLELKR
# B3: LK-RB1-38 (antibody, human IgG4 S228P, kappa, V domains shown)
# VH: DVQLQESGPGLVQPSQSLSLTCSVTGYSITSGYQWNWIRQLPGNKLEWMAYISFDGSNNYNPSLKNRISITRDTSKNQFFLKLKSVTTEDTATYYCARRDYDGVAYWGQGTLVTVSA
# VL: EIVLTQSPATLSVTPGDRVSLSCRASQNISNYLHWYQQKSHGSPRLIIKYASQSISGIPSRFSGSGSGTDFTLSINSVETEDFGMYFCQQSNSWPLTFGAGTKLELKR
# B4: LK-RB1-46 (antibody, human IgG4 S228P, kappa, V domains shown)
# VH: EVQLQQSGPELVKPGASVKISCKTSGYTFTDYYMNWVKQSHGKSLEWIGDIYPINGDISYNQKFKGKATLTVDKSSSTVYMEIRSLTYEDSAVYYCARLAQTTSGGFDYWGQGTTLTVSS
# VL: DIVLTQSPTSLAVSLGQRAIISCKASQSVSFAGTSLMHWYQQKPGQQPKLLIYRASNLKAGVPTRFSGSGSRTDFTLNIHPVEEDDAATYYCQQSREYPMYTFGGGTKLEIKR
# B5: LK-RB1-42 (antibody, human IgG4 S228P, kappa, V domains shown)
# VH: QVQLQQPGAELVKPGTSVKLSCKASGYSFISYWVYWVKQRPGQGLEWIGMIHPNSGSTNFNEKFRYKATLTVDKSSSTAYIQLSSLTSEDSAVYYCGRSDDGYPYHAMDSWGQGTSVTVSS
# VL: DIVMTQSQKFMSTSVGDRVSVTCKASQNVGTNVAWYQQKPGQSPKALIYSASYRFSGVPDRFTGSGSGTDFTLTIGNVQSEDLAEYFCHQYKNYPLTFGGGTKLEIKR
# B6: LK-RB1-39 (antibody, human IgG4 S228P, kappa, V domains shown)
# VH: EVQLQQSGAELVRPGASVKLSCTASGFNIKDDYVHWVNQRPEQGLEWIGWIDPENGDTGYASKFQDKATITADTSSNTAYLHLSSLTSEDTAVYYCTTTRWTGSYWGQGTTLTVSS
# VL: QIVLTQSPAIMSASPGEKVTITCSASSSVNYMHWFQQKPGSSPKLWIYSTANLASGVPARFSGSGSGTSYSLTISRMEAEDAATYYCQQRSSYPPTWTFGGGTKLEIKR
# B7: LK-RB1-34 (antibody, human IgG4 S228P, kappa, V domains shown)
# VH: QVQLQQSGAELVKPGASVKLSCKASGYTFTEYTIHWVKQRSGQGLEWIGWFYPGSDSIKYNEKFKDKATLTADKSSSTVYMELSRLTSEDSAVYFCSRHEGPYFTSQYYFDYWGQGTTLTVSS
# VL: DILLTQSPAILSVSPGERVSFSCRASRYIGTSIHWYQQRTNGSPRLLIKYASESISGIPSRFSGSGSGTDFTLSINSVESEDIADYYCQQSNTWPLTFGAGTKLELKR
# B8: LK-RB1-45 (antibody, human IgG4 S228P, kappa, V domains shown)
# VH: QVQLQQSGTELARPGASVKLSCKASGYTFTNFWMHWIKQRPGQGLEWIGYVNPTSDYTKYNQKFKDKATLTADKSSSTAYMQLNSLTYEDSAVYYCTRSSLYDTNYVFDSWGQGTTLTVSS
# VL: DILLTQSPAILSVSPGERVSFSCRASQSIGRSIHWYQQRTNGSPRLLIKYASESISGIPSRFSGGGSGTDFTLSISNVESEDIADYYCQQSNNWPFTFGSGTKLEIKR
# B9: LK-RB1-37 (antibody, human IgG4 S228P, kappa, V domains shown)
# VH: QVQLQQPGAELVKPGASVKLSCKASGYTFTSYWMHWVKQRPGRGPEWIGRIDPNSGYARYNEKFKNKATLTADKPSSTADMHLSSLTSEDSAVYYCTRSFITTAEWFFDVWGTGTTVTVSS
# VL: DILLTQSPAILSVSPGERVSFSCRASQSIGTSIHWYQQRRNGSPRLLIKYTSESISGIPSRFSGSGSGTDFTLSINSVESEDIADYYCQQSNSWPHTFGGGTKLELKR
# B10: LK-RB2-8 (antibody, human IgG4 S228P, kappa, V domains shown)
# VH: QIQLVQSGPELKKPGETVKISCKASGYSFASYGMGWVKQAPGKGLKWLGWINTHSGVPTYADDFKGRFAFSLETSASTAYLQINNLKNEDTATYFCAHYGRPWFPYWGQGTLVTVSA
# VL: DIQMTQSPASLSASVGETVTITCRTSENIYSYLAWYQQKQGKSPQLLVYNAKSLAEGVPSRFSGSGSGTQFSLRINSLQPEDFGTYYCQQHYETPLTFGAGTKLELKR
# B11: LK-RB2-16 (antibody, human IgG4 S228P, kappa, V domains shown)
# VH: QIQLVQSGPELKKPGETVKISCKASGYTFTTYGMGWVKQAPEKGLKWMGWINTNSGAPTYGDDFKGRFAFSLETSASTAYLQINNLKNEDTATYFCAHYGRPWFAYWGQGTLVTVSA
# VL: DIQMTQSPASLSASVGETVTITCRASENIYSYLAWYHQKQGESPQLLVYNAKTLAEGVPSRFSGSGSGTQFSLKINSLQPEDFGSYYCQHHYNIPLTFGAGTKLELKR
# B12: LK-RB1-43 (antibody, human IgG4 S228P, kappa, V domains shown)
# VH: EFQLQQSGPELMKPGASVKISCKASGYSFTDYNMNWVKQSNGKSLEWIGIIDPNYGTTTYNQKFKGRATLTVDQSSNTAYMQLNSLTSEDSAVYYCAREGRYSWFAYWGQGTLVTVSA
# VL: DIQMTQSPGALSVSVGETVTITCRASENINSNLAWYQQKQGKSPQLLVYAATNLADGVPSRFSGSGSGTQYSLKINSLQSEDFGSYHCQHFWGTPFTFGSGTKLEIKR
# B13: LK-RB1-59 (antibody, human IgG4 S228P, kappa, V domains shown)
# VH: QIQLVQSGPELKKPGETVKISCKASGYTFTTYGMSWVKQAPGKGLKWMGWINTYSGVPTYADDFKGRFAFSLETSASTAYLQINNLKNEDTATYFCARRRIYYGNKGYAMDYWGQGTSVTVSS
# VL: DIQMTQSPASLSVSVGETVTITCRASENIYSNLVWYQQKQGKSPQLLVYTATNLADGVPSRFSGSGSGTQFSLKINSLQSEDFGSYYCQHFWGTPWTFGGGTKLEIKR
# B14: LK-RB1-44 (antibody, human IgG4 S228P, kappa, V domains shown)
# VH: QVQLQQSGTELAKPGASVKLSCKASGYTFTNYWMHWIKQRPGQGLEWIGYVHPTSDYTKYNQKFKDKATLTADKSSSTAYMQLNSLTYEDSAVYYCTRSSLYDTNYVFDSWGQGTTLTVSS
# VL: DILLTQSPAILSVSPGERVSFSCRASQSIGRSIHWFQQRTNGSPSLLIKYASESISGIPSRFSGGGSGTDFTLSISNVESEDIADYYCQQSNNWPFTFGSGTKLEIKR
# B15: LK-RB1-54 (antibody, human IgG4 S228P, kappa, V domains shown)
# VH: DVQLQESGPGLVKPSQSLSLTCSVTGYSITSGFYWNWIRQFPGNKLEWMGHISYDGTNNYNPSLKNRISITRDTSKNLFFLKLNSVTTEDTATFHCARGGYGGSYGFDYWGQGTTLTVSS
# VL: ENVLTQSPAIMSASLGEKVTMSCRASSSVNYMYWYQQKSDASPKLWIYYTSNLAPGVPVRFSGSGSGNSYSLTISSMEGEDAATYYCQQFTSSPWTFGGGTKLEIKR
# Molecular target: Rhesus LILRB1 (NP_001035762.2) on CHOK1 cells (rhesus macaque) (UniProt F7H3G7)
# Test: flow cytometry on CHOK1-rhesus LILRB1 (NP_001035762.2) cells
row,Binder,EC50 [nM]
1,B1,0.64
2,B2,0.54
3,B3,4.97
4,B4,2.71
5,B5,59.8
6,B6,0.36
7,B7,8.06
8,B8,96.1
9,B9,37.7
10,B10,15.1
11,B11,18.5
12,B12,1.62
13,B13,40.2
14,B14,769

# Molecular target: Rhesus LILRB1 (NP_001035762.2) on CHOK1 cells (rhesus macaque) (UniProt F7H3G7)
# Test: cell based blocking assay on CHOK1-rhesus LILRB1 (NP_001035762.2) cells; blocked ligand not named
Binder,EC50 [nM],Top Inhibition (%)
B15,1.2,54
B6,0.16,73.1
